Test results taken from US12459997B2, “Compounds and methods targeting interleukin-19” (Eli Lilly and Company, priority 2018, dated 2025).

Tests used:
recombinant human IL-19 [1] = biological target: T1, recombinant human IL-19 (Homo sapiens, UniProt Q9UHD0); experiment: Bio-layer interferometry (BLI) binding kinetics and affinity (Octet Red96); details: 25° C.; 1:1 binding model
T1 sequence (Q9UHD0 25-177): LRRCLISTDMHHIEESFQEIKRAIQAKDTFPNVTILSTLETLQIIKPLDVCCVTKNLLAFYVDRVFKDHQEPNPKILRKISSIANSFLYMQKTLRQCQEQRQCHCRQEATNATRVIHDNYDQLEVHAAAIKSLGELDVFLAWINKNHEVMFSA
Protocol: Bio-layer interferometry (BLI) assay, measured with a Octet Red96® instrument available from ForteBio (using HBS-EP+ running buffer (GE Healthcare, 10 mM Hepes pH7.4+150 mM NaCl+3 mM EDTA+0.05% surfactant P20) at 25° C.), is used to measure binding of the exemplified IL-19 antibodies of the present invention to recombinant human IL-19 (having the amino acid sequence set for in SEQ ID NO: 1).
Except as noted, all reagents and materials are from ForteBio (Freemont, Calif.). An AMQ biosensor is used to immobilize antibody of interest for analysis. […] Recombinant human IL-19 is prepared to concentrations of 270, 90, 30, 10, 3.33, 1.11, 0.370, and 0 (blank) nM by dilution into running buffer. Each analysis consists of: (1) capturing antibody samples on biosensors for 300 secs; (2) establishing a baseline by incubating antibody loaded biosensors with running buffer for 60 secs; (3) incubating antibody loaded biosensors with serially diluted recombinant human IL-19 for 300 secs to monitor association phase; (4) return of biosensor to running buffer to monitor dissociation phase.
Binding data is processed using standard double-referencing and fit to a 1:1 binding model using Data Analysis v9.0 evaluation software, to determine the association rate (kon, M^−1 s^−1 units), dissociation rate (koff, s^−1 units), and Rmax (nm units). The equilibrium dissociation constant (KD) was calculated from the relationship KD=koff/kon, and is in molar units.

[2] = biological target: T2, human IL-19 / human IL-20R beta Fc-fusion protein (Homo sapiens, UniProt Q9UHD0); experiment: BLI in vitro neutralization: IL-19 captured by antibody, then incubated with IL-20R beta Fc; details: block of IL-19 binding to soluble receptor
T2 sequence (Q9UHD0 25-177): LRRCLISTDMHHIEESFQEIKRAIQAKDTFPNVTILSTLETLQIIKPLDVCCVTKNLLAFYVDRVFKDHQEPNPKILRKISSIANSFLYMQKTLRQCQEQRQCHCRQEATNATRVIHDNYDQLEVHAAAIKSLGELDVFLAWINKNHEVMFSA
Text: Alternatively, a biophysical assay such as bio-layer interferometry (BLI) may be used for assessing neutralization of IL-19 by antibodies of the present invention. Binding between a ligand immobilized on the biosensor tip surface and an analyte in solution produces an increase in optical thickness at the biosensor tip, which results in a wavelength shift (expressed in nm). According to such assay, the IL-19 receptor (i.e., […]) is expressed in a membrane-free manner (such as with an Fc-fusion e.g. IL20Rbeta Fc chimera protein from R&D Systems catalog 1788-IR-050). […] The immobilized antibodies are then incubated with recombinant human IL-19 protein diluted to 100 nM using HBS-EP+ running buffer (GE Healthcare, 10 mM Hepes pH7.4+150 mM NaCl+3 mM EDTA+0.05% surfactant P20) for 240-300 secs. The human IL-19, after binding to the anti-IL-19 antibody, is assessed by incubation with human IL-20R beta Fc-fusion protein for 240-300 secs. The ability of the antibody to block or neutralize binding of the IL-19 ligand to the soluble receptor is observed as a minimal (<0.025 nm) increase in the wavelength during this step of the assay.

recombinant human IL-19 [3] = biological target: T1, recombinant human IL-19; experiment: HDX-MS epitope mapping; assay type: binding; details: IL-19:antibody molar ratio 1:1.2
Protocol: Briefly, HDX-MS is performed on a Waters nanoACQUITY system with HDX technology, including a LEAP HDX robotic liquid handling system and mass analysis is performed on a Waters Xevo G2-Tof mass spectrometer. […] The deuterium exchange experiment is initiated adding 55 uL of D2O buffer containing 0.1×PBS to 5 ul of human IL-19 or the human IL-19/antibody complex at 15° C. for various amounts of time (0 s, 10 s, 1 min, 10 min, 60 min, 120/240 min). The reaction is quenched using equal volume of was 0.32M TCEP, 0.1M phosphate pH 2.5 for two minutes at 1° C. 50 μL of the quenched reaction is injected on to an on-line pepsin column (Waters BEH Enzymate) at 14° C., using 0.2% formic acid in water as the mobile phase at a flow rate of 100 μL/min for 4 min. The resulting peptic peptides are then separated on a C18 column (Waters, Acquity UPLC BEH C18, 1.7 m, 1.0 mm×50 mm) fit with a Vanguard trap column using a 3 to 85% acetonitrile (containing 0.2% formic acid) gradient over 10 min at a flow rate of 50 L/min. The separated peptides are directed into a Waters Xevo G2 time-of-flight (qTOF) mass spectrometer. […] The relative deuterium incorporation for each peptide is determined by processing the MS data for deuterated samples along with the non-deuterated control in DynamX.

B1: R_39: rabbit-derived IL-19 antibody; LC SEQ ID NO: 310, HC SEQ ID NO: 311 (antibody)
heavy: QEQLKESGGGLVQPGGSLKLSCKASGFDLSSYGVSWVRQAPGKGLEWIGYIDPVFGSTYYANWVNGRFTISSDNAQNTLYLQLNSLTAADTATYFCARGSGYVYYGYTYDLWGPGTLVTVSSGQPKAPSVFPLAPCCGDTPSSTVTLGCLVKGYLPEPVTVTWNSGTLTNGVRTFPSVRQSSGLYSLSSVVSVTSSSQPVTCNVAHPATNTKVDKTVAPSTCSKPTCPPPELLGGPSVFIFPPKPKDTLMISRTPEVTCVVVDVSQDDPEVQFTWYINNEQVRTARPPLREQQFNSTIRVVSTLPIAHQDWLRGKEFKCKVHNKALPAPIEKTISKARGQPLEPKVYTMGPPREELSSRSVSLTCMINGFYPSDISVEWEKNGKAEDNYKTTPAVLDSDGSYFLYSKLSVPTSEWQRGDVFTCSVMHEALHNHYTQKSISRSPGK
light: DIVMTQTPASVEAAVGGTVTIKCQASQSIYRYLSWYQQKPGQRPKLLIYGASNLASGVSSRFKGSGSGTEFTLTISDLECADAATYYCQSYYYSSSSGYGNVFGGGTEVVVKGDPVAPTVLIFPPAADQVATGTVTIVCVANKYFPDVTVTWEVDGTTQTTGIENSKTPQNSADCTYNLSSTLTLTSTQYNSHKEYTCKVTQGTTSVVQSFNRGDC
kon (recombinant human IL-19 [1]): 206000 M⁻¹ s⁻¹ | Neutralization [2]: Yes (minimal (<0.025 nm) increase in the wavelength) | residues of SEQ ID NO. 1 with decreased deuterium uptake in complex with antibody (epitope region) (recombinant human IL-19 [3]): residues 42-60 ([…]), 90-107 ([…]), and 149-160 ([…])
